# From US20170240635A1 (AGENCY FOR SCIENCE TECHNOLOGY AND RESEARCH, published 2017)
# Positions count from the first letter of the chain named.
# T1: hICOS-Fc (human, UniProt Q9Y6W8)
# T1 construct: also called human ICOS
# T1 sequence (antigen, looked up): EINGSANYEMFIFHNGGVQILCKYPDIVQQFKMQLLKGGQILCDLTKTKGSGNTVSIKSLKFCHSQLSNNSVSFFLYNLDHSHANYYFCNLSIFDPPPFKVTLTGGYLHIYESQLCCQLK
# T2: human LAG-3 coupled to human Fc (human, UniProt P18627 23-450, limits assumed)
# T2 construct: ELISA coating antigen; not shown: human Fc
# T2 sequence (looked up): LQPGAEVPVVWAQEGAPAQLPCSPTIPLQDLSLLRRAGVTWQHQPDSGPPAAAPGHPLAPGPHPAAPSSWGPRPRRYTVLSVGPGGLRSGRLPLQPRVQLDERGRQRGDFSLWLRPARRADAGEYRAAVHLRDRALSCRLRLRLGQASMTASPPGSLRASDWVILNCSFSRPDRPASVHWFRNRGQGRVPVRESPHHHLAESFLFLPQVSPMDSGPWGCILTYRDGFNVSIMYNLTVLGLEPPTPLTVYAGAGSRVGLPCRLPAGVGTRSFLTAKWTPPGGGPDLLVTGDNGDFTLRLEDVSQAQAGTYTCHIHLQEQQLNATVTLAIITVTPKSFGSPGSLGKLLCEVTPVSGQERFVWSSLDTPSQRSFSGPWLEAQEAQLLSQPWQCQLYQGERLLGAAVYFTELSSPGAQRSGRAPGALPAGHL
# B1: anti-PD-1 antibody clone B6 (Fab) (Fab, V domains shown)
# VH: QVQLVESGGGVVQPGRSLRLSCAASGFTFSSYGMHWVRQAPGKGLEWVAVISYDGSNKYYADSVKGRFTISRDNSKNTLYLQMNSLRAEDTAVYYCASDYGAGPYYYGMDVWGQGTTVTVSS
# VL: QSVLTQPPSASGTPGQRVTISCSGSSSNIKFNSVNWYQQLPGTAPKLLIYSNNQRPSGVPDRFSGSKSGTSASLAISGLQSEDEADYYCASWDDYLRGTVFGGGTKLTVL
# notes: Crude Fab extract in SPR
# B2: anti-PD-1 antibody clone D4 (Fab) (Fab, V domains shown)
# VH: B1 VH with Y100L
# VL: QSVLTQPPSASGTPGQRVTISCSGSSSNIKFNSVNWYQQLPGTAPKLLIYSNNQRPSGVPDRFSGSKSGTSASLAISGLQSEDEADYYCASWDDYVRGTMFGGGTKLTVL
# notes: Crude Fab extract in SPR
# B3: anti-PD-1 antibody clone E1 (Fab) (Fab, V domains shown)
# VH: B1 VH with Y100L
# VL: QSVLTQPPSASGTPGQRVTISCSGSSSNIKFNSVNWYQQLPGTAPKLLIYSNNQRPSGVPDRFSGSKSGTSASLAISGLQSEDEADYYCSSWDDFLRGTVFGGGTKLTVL
# notes: Crude Fab extract in SPR
# B4: anti-PD-1 antibody clone C4 (Fab) (Fab, V domains shown)
# VH: B1 VH with Y100L, M109L
# VL: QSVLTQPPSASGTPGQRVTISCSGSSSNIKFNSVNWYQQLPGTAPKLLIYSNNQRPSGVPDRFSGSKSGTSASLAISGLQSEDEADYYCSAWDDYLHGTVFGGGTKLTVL
# notes: Crude Fab extract in SPR
# B5: anti-PD-1 antibody clone G10 (Fab) (Fab, V domains shown)
# VH: B1 VH
# VL: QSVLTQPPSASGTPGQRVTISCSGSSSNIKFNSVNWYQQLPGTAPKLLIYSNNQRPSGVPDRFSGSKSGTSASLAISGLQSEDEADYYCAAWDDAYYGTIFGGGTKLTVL
# notes: Crude Fab extract in SPR
# B6: anti-PD-1 antibody clone G1 (Fab) (Fab, V domains shown)
# VH: B1 VH with Y100L
# VL: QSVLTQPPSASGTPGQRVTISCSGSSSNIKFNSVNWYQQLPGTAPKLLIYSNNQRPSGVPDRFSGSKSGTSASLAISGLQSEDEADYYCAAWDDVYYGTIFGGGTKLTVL
# notes: Crude Fab extract in SPR
# B7: anti-PD-1 antibody clone H4 (Fab) (Fab, V domains shown)
# VH: B1 VH with Y100L, A102S, P104Y, Y106L
# VL: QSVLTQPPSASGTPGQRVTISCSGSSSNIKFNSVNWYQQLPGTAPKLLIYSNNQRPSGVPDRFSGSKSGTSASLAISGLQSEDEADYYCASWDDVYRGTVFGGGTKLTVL
# notes: Crude Fab extract in SPR
# B8: anti-PD-1 antibody clone F2 (Fab) (Fab, V domains shown)
# VH: B1 VH with Y100L
# VL: B2 VL with A90S, Y95D, V96A, M100I
# notes: Crude Fab extract in SPR
# B9: A10-IgG4 (antibody, V domains shown)
# VH: B1 VH with E6Q, Y100L, M109K
# VL: B2 VL with Q1L, S2P, Y88F, V96Y, R97Y, M100I
# notes: also called anti-PD-1 antibody clone A10 (human IgG4)
# B10: A3-IgG4 (antibody, V domains shown)
# VH: B1 VH with E6Q, Y100L, M109K, V111H
# VL: B2 VL with Q1L, S2P, Y88F, Y95V, V96L, R97Y, T99S, M100V
# notes: also called anti-PD-1 antibody clone A3 (human IgG4)
# Target: T3, hCTLA4-Fc (human, UniProt P16410)
# T3 construct: also called human CTLA-4; human CTLA4
# Assay: ELISA; antigen coated 350 ng/well, Fab-containing supernatant, goat anti-human Fab-HRP, absorbance 450-670 nm
# T3 sequence (P16410 37-162 limits assumed): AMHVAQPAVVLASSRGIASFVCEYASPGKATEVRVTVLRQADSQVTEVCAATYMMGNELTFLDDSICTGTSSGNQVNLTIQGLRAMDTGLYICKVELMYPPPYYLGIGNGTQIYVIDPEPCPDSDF
row,binding result,Binder
1,no binding (tested: not given),B1
2,no binding (tested: not given),B2
3,no binding (tested: not given),B3
4,no binding (tested: not given),B4
5,no binding (tested: not given),B5

# Target: T3, hCTLA4-Fc
# Assay: ELISA; antigen coated 350 ng/well, goat anti-human Fab-HRP, absorbance 450-670 nm
# Experimental: (§1) Anti-PD-1 antibodies were tested in an ELISA assay for their ability to bind to other members of the CD28 family.
# (§2) Briefly, ELISA plates were coated with 350 ng/well of one of the following antigens coupled to human Fc in carbonate buffer: human PD-1, human PD-L1, human TIM-3, human LAG-3, human ICOS, human CTLA4, human BTLA, human CD28, mouse TIM-3, or rhesus PD-1. The plate was then blocked with a solution of casein. After extensive washes in PBS Tween-20, antibodies were added into the ELISA wells in the presence of 7% milk in PBS. After 90 minutes at room temperature under agitation and extensive washes, a goat anti-human Fab antibody coupled to HRP was added. One hour later, plates were washed and TMB substrate added. The reaction was stopped with 1M HCl and optical density measured at 450 nm with a reference at 670 nm.
row,binding result,Binder
1,no binding (tested: not given),B6
2,no binding (tested: not given),B7
3,no binding (tested: not given),B8

# Target: T4, human PD-L1 coupled to human Fc (human, UniProt Q9NZQ7 19-239, limits assumed)
# T4 construct: ELISA coating antigen; not shown: human Fc
# Assay: as above
# Experimental: as §1, §2
# T4 sequence (Q9NZQ7 19-239 limits assumed): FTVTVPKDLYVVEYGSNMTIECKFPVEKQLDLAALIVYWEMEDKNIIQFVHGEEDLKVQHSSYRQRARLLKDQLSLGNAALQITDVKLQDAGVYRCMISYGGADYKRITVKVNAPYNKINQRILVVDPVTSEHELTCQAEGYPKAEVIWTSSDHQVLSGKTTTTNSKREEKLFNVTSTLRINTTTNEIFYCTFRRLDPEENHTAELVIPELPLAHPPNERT
row,binding result,Binder
1,no binding (tested: not given),B1
2,no binding (tested: not given),B6
3,no binding (tested: not given),B2
4,no binding (tested: not given),B7
5,no binding (tested: not given),B3
6,no binding (tested: not given),B8
7,no binding (tested: not given),B4
8,no binding (tested: not given),B5

# Target: T1, hICOS-Fc
# Assay: as above
# Experimental: as §1, §2
row,binding result,Binder
1,no binding (tested: not given),B1
2,no binding (tested: not given),B6
3,no binding (tested: not given),B2
4,no binding (tested: not given),B7
5,no binding (tested: not given),B3
6,no binding (tested: not given),B8
7,no binding (tested: not given),B4
8,no binding (tested: not given),B5

# Target: T5, human TIM-3 coupled to human Fc (human, UniProt Q8TDQ0 22-200, limits assumed)
# T5 construct: not shown: human Fc
# Assay: as above
# Experimental: as §1, §2
row,binding result,Binder
1,no binding (tested: not given),B1
2,no binding (tested: not given),B6
3,no binding (tested: not given),B2
4,no binding (tested: not given),B7
5,no binding (tested: not given),B3
6,no binding (tested: not given),B8
7,no binding (tested: not given),B4
8,no binding (tested: not given),B5

# Target: T2, human LAG-3 coupled to human Fc
# Assay: as above
# Experimental: as §1, §2
row,binding result,Binder
1,no binding (tested: not given),B1
2,no binding (tested: not given),B6
3,no binding (tested: not given),B2
4,no binding (tested: not given),B7
5,no binding (tested: not given),B3
6,no binding (tested: not given),B8
7,no binding (tested: not given),B4
8,no binding (tested: not given),B5

# Target: T6, human BTLA coupled to human Fc (human, UniProt Q7Z6A9 31-150, limits assumed)
# T6 construct: ELISA coating antigen; not shown: human Fc
# Assay: as above
# Experimental: as §1, §2
# T6 sequence (Q7Z6A9 31-150 limits assumed): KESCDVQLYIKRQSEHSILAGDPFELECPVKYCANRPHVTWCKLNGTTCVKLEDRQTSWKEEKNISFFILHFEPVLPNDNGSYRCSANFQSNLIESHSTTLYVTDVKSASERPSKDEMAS
row,binding result,Binder
1,no binding (tested: not given),B1
2,no binding (tested: not given),B6
3,no binding (tested: not given),B2
4,no binding (tested: not given),B7
5,no binding (tested: not given),B3
6,no binding (tested: not given),B8
7,no binding (tested: not given),B4
8,no binding (tested: not given),B5

# Target: T7, human CD28 coupled to human Fc (human, UniProt P10747 19-152, limits assumed)
# T7 construct: ELISA coating antigen; not shown: human Fc
# Assay: as above
# Experimental: as §1, §2
row,binding result,Binder
1,no binding (tested: not given),B1
2,no binding (tested: not given),B6
3,no binding (tested: not given),B2
4,no binding (tested: not given),B7
5,no binding (tested: not given),B3
6,no binding (tested: not given),B8
7,no binding (tested: not given),B4
8,no binding (tested: not given),B5

# Target: T8, mTim3-Fc (mouse, UniProt Q8VIM0)
# T8 construct: also called mouse TIM-3
# Assay: as above
# Experimental: as §1, §2
# T8 sequence (Q8VIM0 20-191 limits assumed): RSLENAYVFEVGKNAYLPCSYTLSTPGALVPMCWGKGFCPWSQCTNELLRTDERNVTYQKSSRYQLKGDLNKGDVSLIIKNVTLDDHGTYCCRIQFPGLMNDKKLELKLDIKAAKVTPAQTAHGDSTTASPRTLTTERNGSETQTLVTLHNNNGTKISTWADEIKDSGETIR
row,binding result,Binder
1,no binding (tested: not given),B1
2,no binding (tested: not given),B6
3,no binding (tested: not given),B2
4,no binding (tested: not given),B7
5,no binding (tested: not given),B3
6,no binding (tested: not given),B8
7,no binding (tested: not given),B4
8,no binding (tested: not given),B5

# Target: T9, human PD-1 coupled to human Fc (human, UniProt Q15116 25-167, limits assumed)
# T9 construct: also called human-PD-1 coupled to Fc; not shown: human Fc
# Assay: SPR (ProteOn XPR36); human PD-1-Fc immobilised, crude Fab extract flown over
# Experimental: Briefly, human or mouse PD-1 coupled to human Fc was immobilised on a sensor chip compatible with the Proteon XPR36 bioanalyser (Biorad). Crude Fab extracts (or the control antibodies) were then flown onto the chip and the association/dissociation of each candidate Fab was then recorded and analysed, the affinity (KD) was calculated.
# T9 sequence (Q15116 25-167 limits assumed): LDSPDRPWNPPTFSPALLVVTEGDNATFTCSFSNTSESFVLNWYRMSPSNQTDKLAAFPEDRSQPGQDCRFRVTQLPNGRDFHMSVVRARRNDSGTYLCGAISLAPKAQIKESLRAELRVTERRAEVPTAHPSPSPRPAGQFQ
row,Kd [nM],Binder
1,0.26,B1
2,0.1,B6
3,0.22,B2
4,0.27,B7
5,0.21,B3
6,0.11,B8
7,0.4,B4
8,0.27,B5

# Target: T10, PD-1 on exhausted human T cells (human, UniProt Q15116 25-288)
# T10 construct: whole, on cells; T cells exhausted by 7 days of culture with allogeneic monocyte-derived dendritic cells
# Assay: flow cytometry (MFI); IgG4 on human T cells activated 7 days with allogeneic DCs, fluorescent secondary antibody
# Experimental: (§3) 50,000 T cells isolated from a healthy donor were incubated in the presence of 5,000 monocyte-derived DCs from another donor for 7 days at 37° C. Antibodies, expressed as IgG4, were incubated with such activated T cells for 30 minutes in PBS. After a wash in PBS, a fluorescent labelled secondary antibody was added for 30 minutes and then washed in PBS. Cells were resuspended in FACS buffer and binding of the antibody to the cells was monitored by flow cytometry (FIGS. 6 and 7).
# T10 sequence (Q15116 25-288): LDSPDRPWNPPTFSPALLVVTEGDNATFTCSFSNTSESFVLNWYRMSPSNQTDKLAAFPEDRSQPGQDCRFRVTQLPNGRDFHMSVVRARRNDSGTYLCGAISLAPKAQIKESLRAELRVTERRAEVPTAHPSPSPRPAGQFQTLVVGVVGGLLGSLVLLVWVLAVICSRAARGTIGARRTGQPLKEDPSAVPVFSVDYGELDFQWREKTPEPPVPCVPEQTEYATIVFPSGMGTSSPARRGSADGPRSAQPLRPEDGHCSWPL
row,EC50 [nM],Binder
1,0.262,B9
2,0.855,B10

# Target: T10, PD-1 on exhausted human T cells
# Assay: as above
# Remark: another data set of the same source
# Experimental: as §3
row,EC50 [nM],Binder
1,0.253,B9
